# Source: patent US20140087995A1 (published 2014)
# Numbered stars: 1 amine (or outer) side, 2 acyl side, 3 side chain; on linkers, the order of the positions; unused ones are H or OH. Bridge positions count the residues as written; N and C are the ends. Side chains are listed from the residue outwards. Ends that are not written are not given here. * marks the point of attachment. C20 diacid = O=C(O)CCCCCCCCCCCCCCCCCCC(=O)*; γGlu = O=C(O)[C@H](CCC(=O)[*:2])N[*:1]
# T1: human calcitonin receptor (human, UniProt P30988 25-474)
# T1 sequence (looked up): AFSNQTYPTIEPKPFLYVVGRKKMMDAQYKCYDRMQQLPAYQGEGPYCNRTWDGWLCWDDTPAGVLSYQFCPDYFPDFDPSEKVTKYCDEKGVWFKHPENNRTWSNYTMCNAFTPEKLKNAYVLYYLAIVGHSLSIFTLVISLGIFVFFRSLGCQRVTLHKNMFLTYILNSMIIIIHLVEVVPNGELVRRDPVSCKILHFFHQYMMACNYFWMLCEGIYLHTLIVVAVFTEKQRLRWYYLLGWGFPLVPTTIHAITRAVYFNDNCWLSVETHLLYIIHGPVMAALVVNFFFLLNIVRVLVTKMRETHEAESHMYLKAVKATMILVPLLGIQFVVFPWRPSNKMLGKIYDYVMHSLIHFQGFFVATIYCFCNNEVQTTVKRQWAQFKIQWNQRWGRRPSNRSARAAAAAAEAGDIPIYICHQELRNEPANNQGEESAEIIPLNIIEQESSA
# Biological target: T1, human calcitonin receptor
# Assay: cell-based or functional assay
row,hCTR funct. EC50 (pM),Binder
1,818 pM,"{C20 diacid-γGlu}-GRCNTATCATQRLAHFLRHSSPNFGAIPSSTNVGSNTY-NH2 (disulfide 3-8; SMILES CC[C@H](C)[C@H](NC(=O)[C@H](C)NC(=O)CNC(=O)[C@H](Cc1ccccc1)NC(=O)[C@H](CC(N)=O)NC(=O)[C@@H]1CCCN1C(=O)[C@H](CO)NC(=O)[C@H](CO)NC(=O)[C@H](Cc1c[nH]cn1)NC(=O)[C@H](CCCNC(=N)N)NC(=O)[C@H](CC(C)C)NC(=O)[C@H](Cc1ccccc1)NC(=O)[C@H](Cc1c[nH]cn1)NC(=O)[C@H](C)NC(=O)[C@H](CC(C)C)NC(=O)[C@H](CCCNC(=N)N)NC(=O)[C@H](CCC(N)=O)NC(=O)[C@@H](NC(=O)[C@H](C)NC(=O)[C@@H]1CSSC[C@H](NC(=O)[C@H](CCCNC(=N)N)NC(=O)CNC(=O)CC[C@H](NC(=O)CCCCCCCCCCCCCCCCCCC(=O)O)C(=O)O)C(=O)N[C@@H](CC(N)=O)C(=O)N[C@@H]([C@@H](C)O)C(=O)N[C@@H](C)C(=O)N[C@@H]([C@@H](C)O)C(=O)N1)[C@@H](C)O)C(=O)N1CCC[C@H]1C(=O)N[C@@H](CO)C(=O)N[C@@H](CO)C(=O)N[C@H](C(=O)N[C@@H](CC(N)=O)C(=O)N[C@H](C(=O)NCC(=O)N[C@@H](CO)C(=O)N[C@@H](CC(N)=O)C(=O)N[C@H](C(=O)N[C@@H](Cc1ccc(O)cc1)C(N)=O)[C@@H](C)O)C(C)C)[C@@H](C)O, N-terminal extension by Gly; synthetic peptide amide; also called compound 99)"
2,1730 pM,"{C20 diacid-γGlu}-GRCNTATCATQRLAHFLRHSSPNFGAIPSSTNVGHNTY-NH2 (disulfide 3-8; SMILES CC[C@H](C)[C@H](NC(=O)[C@H](C)NC(=O)CNC(=O)[C@H](Cc1ccccc1)NC(=O)[C@H](CC(N)=O)NC(=O)[C@@H]1CCCN1C(=O)[C@H](CO)NC(=O)[C@H](CO)NC(=O)[C@H](Cc1c[nH]cn1)NC(=O)[C@H](CCCNC(=N)N)NC(=O)[C@H](CC(C)C)NC(=O)[C@H](Cc1ccccc1)NC(=O)[C@H](Cc1c[nH]cn1)NC(=O)[C@H](C)NC(=O)[C@H](CC(C)C)NC(=O)[C@H](CCCNC(=N)N)NC(=O)[C@H](CCC(N)=O)NC(=O)[C@@H](NC(=O)[C@H](C)NC(=O)[C@@H]1CSSC[C@H](NC(=O)[C@H](CCCNC(=N)N)NC(=O)CNC(=O)CC[C@H](NC(=O)CCCCCCCCCCCCCCCCCCC(=O)O)C(=O)O)C(=O)N[C@@H](CC(N)=O)C(=O)N[C@@H]([C@@H](C)O)C(=O)N[C@@H](C)C(=O)N[C@@H]([C@@H](C)O)C(=O)N1)[C@@H](C)O)C(=O)N1CCC[C@H]1C(=O)N[C@@H](CO)C(=O)N[C@@H](CO)C(=O)N[C@H](C(=O)N[C@@H](CC(N)=O)C(=O)N[C@H](C(=O)NCC(=O)N[C@@H](Cc1c[nH]cn1)C(=O)N[C@@H](CC(N)=O)C(=O)N[C@H](C(=O)N[C@@H](Cc1ccc(O)cc1)C(N)=O)[C@@H](C)O)C(C)C)[C@@H](C)O, N-terminal extension by Gly; synthetic peptide amide; also called compound 100)"
3,841 pM,"K([γGlu-C20 diacid])CNTATCATQRLAEFLRHSSPNFGAIPSSTNVGPETY-NH2 (disulfide 2-7; N-terminus assumed; SMILES CC[C@H](C)[C@H](NC(=O)[C@H](C)NC(=O)CNC(=O)[C@H](Cc1ccccc1)NC(=O)[C@H](CC(N)=O)NC(=O)[C@@H]1CCCN1C(=O)[C@H](CO)NC(=O)[C@H](CO)NC(=O)[C@H](Cc1c[nH]cn1)NC(=O)[C@H](CCCNC(=N)N)NC(=O)[C@H](CC(C)C)NC(=O)[C@H](Cc1ccccc1)NC(=O)[C@H](CCC(=O)O)NC(=O)[C@H](C)NC(=O)[C@H](CC(C)C)NC(=O)[C@H](CCCNC(=N)N)NC(=O)[C@H](CCC(N)=O)NC(=O)[C@@H](NC(=O)[C@H](C)NC(=O)[C@@H]1CSSC[C@H](NC(=O)[C@@H](N)CCCCNC(=O)CC[C@H](NC(=O)CCCCCCCCCCCCCCCCCCC(=O)O)C(=O)O)C(=O)N[C@@H](CC(N)=O)C(=O)N[C@@H]([C@@H](C)O)C(=O)N[C@@H](C)C(=O)N[C@@H]([C@@H](C)O)C(=O)N1)[C@@H](C)O)C(=O)N1CCC[C@H]1C(=O)N[C@@H](CO)C(=O)N[C@@H](CO)C(=O)N[C@H](C(=O)N[C@@H](CC(N)=O)C(=O)N[C@H](C(=O)NCC(=O)N1CCC[C@H]1C(=O)N[C@@H](CCC(=O)O)C(=O)N[C@H](C(=O)N[C@@H](Cc1ccc(O)cc1)C(N)=O)[C@@H](C)O)C(C)C)[C@@H](C)O, synthetic peptide amide)"
4,2140 pM,"K([γGlu-γGlu-C20 diacid])CNTATCATQRLAEFLRHSSPNFGAIPSSTNVGPNTF-NH2 (disulfide 2-7; N-terminus assumed; SMILES CC[C@H](C)[C@H](NC(=O)[C@H](C)NC(=O)CNC(=O)[C@H](Cc1ccccc1)NC(=O)[C@H](CC(N)=O)NC(=O)[C@@H]1CCCN1C(=O)[C@H](CO)NC(=O)[C@H](CO)NC(=O)[C@H](Cc1c[nH]cn1)NC(=O)[C@H](CCCNC(=N)N)NC(=O)[C@H](CC(C)C)NC(=O)[C@H](Cc1ccccc1)NC(=O)[C@H](CCC(=O)O)NC(=O)[C@H](C)NC(=O)[C@H](CC(C)C)NC(=O)[C@H](CCCNC(=N)N)NC(=O)[C@H](CCC(N)=O)NC(=O)[C@@H](NC(=O)[C@H](C)NC(=O)[C@@H]1CSSC[C@H](NC(=O)[C@@H](N)CCCCNC(=O)CC[C@H](NC(=O)CC[C@H](NC(=O)CCCCCCCCCCCCCCCCCCC(=O)O)C(=O)O)C(=O)O)C(=O)N[C@@H](CC(N)=O)C(=O)N[C@@H]([C@@H](C)O)C(=O)N[C@@H](C)C(=O)N[C@@H]([C@@H](C)O)C(=O)N1)[C@@H](C)O)C(=O)N1CCC[C@H]1C(=O)N[C@@H](CO)C(=O)N[C@@H](CO)C(=O)N[C@H](C(=O)N[C@@H](CC(N)=O)C(=O)N[C@H](C(=O)NCC(=O)N1CCC[C@H]1C(=O)N[C@@H](CC(N)=O)C(=O)N[C@H](C(=O)N[C@@H](Cc1ccccc1)C(N)=O)[C@@H](C)O)C(C)C)[C@@H](C)O, synthetic peptide amide)"
5,89600 pM,"K([γGlu-γGlu-C20 diacid])CNTATCATQRLAEFLRHSSNNPGAILSSTNVGPETY-NH2 (disulfide 2-7; N-terminus assumed; SMILES CC[C@H](C)[C@H](NC(=O)[C@H](C)NC(=O)CNC(=O)[C@@H]1CCCN1C(=O)[C@H](CC(N)=O)NC(=O)[C@H](CC(N)=O)NC(=O)[C@H](CO)NC(=O)[C@H](CO)NC(=O)[C@H](Cc1c[nH]cn1)NC(=O)[C@H](CCCNC(=N)N)NC(=O)[C@H](CC(C)C)NC(=O)[C@H](Cc1ccccc1)NC(=O)[C@H](CCC(=O)O)NC(=O)[C@H](C)NC(=O)[C@H](CC(C)C)NC(=O)[C@H](CCCNC(=N)N)NC(=O)[C@H](CCC(N)=O)NC(=O)[C@@H](NC(=O)[C@H](C)NC(=O)[C@@H]1CSSC[C@H](NC(=O)[C@@H](N)CCCCNC(=O)CC[C@H](NC(=O)CC[C@H](NC(=O)CCCCCCCCCCCCCCCCCCC(=O)O)C(=O)O)C(=O)O)C(=O)N[C@@H](CC(N)=O)C(=O)N[C@@H]([C@@H](C)O)C(=O)N[C@@H](C)C(=O)N[C@@H]([C@@H](C)O)C(=O)N1)[C@@H](C)O)C(=O)N[C@@H](CC(C)C)C(=O)N[C@@H](CO)C(=O)N[C@@H](CO)C(=O)N[C@H](C(=O)N[C@@H](CC(N)=O)C(=O)N[C@H](C(=O)NCC(=O)N1CCC[C@H]1C(=O)N[C@@H](CCC(=O)O)C(=O)N[C@H](C(=O)N[C@@H](Cc1ccc(O)cc1)C(N)=O)[C@@H](C)O)C(C)C)[C@@H](C)O, synthetic peptide amide)"
6,887 pM,"K([γGlu-γGlu-C20 diacid])CNTATCATQRLASFLRHSSPNFGAIPSSTNVGPETY-NH2 (disulfide 2-7; N-terminus assumed; SMILES CC[C@H](C)[C@H](NC(=O)[C@H](C)NC(=O)CNC(=O)[C@H](Cc1ccccc1)NC(=O)[C@H](CC(N)=O)NC(=O)[C@@H]1CCCN1C(=O)[C@H](CO)NC(=O)[C@H](CO)NC(=O)[C@H](Cc1c[nH]cn1)NC(=O)[C@H](CCCNC(=N)N)NC(=O)[C@H](CC(C)C)NC(=O)[C@H](Cc1ccccc1)NC(=O)[C@H](CO)NC(=O)[C@H](C)NC(=O)[C@H](CC(C)C)NC(=O)[C@H](CCCNC(=N)N)NC(=O)[C@H](CCC(N)=O)NC(=O)[C@@H](NC(=O)[C@H](C)NC(=O)[C@@H]1CSSC[C@H](NC(=O)[C@@H](N)CCCCNC(=O)CC[C@H](NC(=O)CC[C@H](NC(=O)CCCCCCCCCCCCCCCCCCC(=O)O)C(=O)O)C(=O)O)C(=O)N[C@@H](CC(N)=O)C(=O)N[C@@H]([C@@H](C)O)C(=O)N[C@@H](C)C(=O)N[C@@H]([C@@H](C)O)C(=O)N1)[C@@H](C)O)C(=O)N1CCC[C@H]1C(=O)N[C@@H](CO)C(=O)N[C@@H](CO)C(=O)N[C@H](C(=O)N[C@@H](CC(N)=O)C(=O)N[C@H](C(=O)NCC(=O)N1CCC[C@H]1C(=O)N[C@@H](CCC(=O)O)C(=O)N[C@H](C(=O)N[C@@H](Cc1ccc(O)cc1)C(N)=O)[C@@H](C)O)C(C)C)[C@@H](C)O, synthetic peptide amide; also called compound 120)"
7,1280 pM,"K([γGlu-γGlu-C20 diacid])CNTATCATQRLAEFLRHSSPNFGAILSSTPVGPETY-NH2 (disulfide 2-7, synthetic peptide amide)"
